Assay results: PMC5472792, “Bub1 positions Mad1 close to KNL1 MELT repeats to promote checkpoint signalling” (Nature Communications, 2017)
Square brackets hold non-standard residues; d marks the D form. Ends that are not written are not given here. * marks the point of attachment. Biotin = O=C1N[C@H]2[C@H](CS[C@H]2CCCCC(=O)*)N1; Nle = CCCC[C@H](N)C(=O)O

What was measured:
GST-Bub1 425–500 = assay: In vitro phosphorylation of GST-Bub1, mass spectrometry; assay type: biochemical, human
Experimental: To identify mitotic kinases able to phosphorylate Bub1 on Ser459 and Thr461 we performed in vitro phosphorylation assays with candidate kinases.
A similar set-up was used for analysing the phosphorylated GST-Bub1 except that an EASY-nLC 1200 UHPLC system connected to an Orbitrap Q-Exactive HF was used and the acetonitrile gradient was run for 77 min. The samples were analysed using a ‘fast' acquisition mode with a normalized collision energy (NCE) of 25 and raw data analysed with MaxQuant software suit version 1.5.7.4.
GST- Bub1 (425–500) was expressed in BL21(DE3) cells at 18 °C overnight with 0.5 mM IPTG in the medium. The bacteria were lysed in 50 mM Tris-HCl pH 7.4, 300 mM NaCl, 10% glycerol, 5 mM β-mercaptoethanol, 1 mM PMSF, plus Complete-EDTA free protease inhibitors (Roche) using a high pressure homogenizer. Lysates were cleared by centrifugation and incubated with pre-equilibrated Glutathione-Fast Flow (GE Healthcare) beads for 2 h at 4 °C and eluted with GST-elution buffer at room temperature (50 mM Tris pH 8.8, 300 mM NaCl, 10% glycerol, 5 mM β-mercaptoethanol, 20 mM reduced glutathione). Elutions were pooled and run on Superdex 200 column (GE Healthcare) in PBS with 8.7% glycerol and 5 mM mercaptoethanol. Peak fractions were aliquoted and stored at −80 °C.
500 μM ATP and 125 nM Calyculin A (Cell Signaling) were added and the reactions were incubated at 30 °C for 1 h. Controls were incubated in kinase buffer and Calyculin A only. 6 μg of phosphorylated protein was resolved on NuPAGE Novex 4–12% Bis-Tris protein gels, which were fixed and stained by Colloidal Blue Staining (Thermo Scientific). The band corresponding to GST-Bub1 was cut out and analysed by mass spectrometry.

His-Strep-Mad1 597–718 = molecular target: T1, His-Strep-Mad1 597–718 (human, UniProt Q9Y6D9 597-718); assay: SPR; N-terminally biotinylated Bub1 peptides captured (~50 RU) on a streptavidin-coated CM5 chip, Mad1 proteins injected; Biacore T200, 25 °C; 25 mM Tris pH 7.8, 150 mM NaCl, 10 mM MgCl2, 0.25 M TCEP, 0.005% Surfactant P-20; steady-state affinity model; settings: both partners purified
T1 construct: composition confirmed by multi-angle light scattering; also called Mad1 C-terminal fragment; source: E. coli BL21(DE3), purified (HiTrap Ni column, Superdex 75)
T1 sequence (looked up): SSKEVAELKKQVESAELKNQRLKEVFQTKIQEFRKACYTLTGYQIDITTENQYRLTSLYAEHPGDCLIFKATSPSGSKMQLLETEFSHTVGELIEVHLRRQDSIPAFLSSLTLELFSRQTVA

Bub1 and KNL1 = assay: BioID proximity biotinylation; assay type: cell-based, human
Text: We speculated that CD1 might engage in a protein-protein interaction that is critical for checkpoint signalling. Mad1 appeared to be the only core component of the checkpoint for which we could see an effect of removing the CD1 on its kinetochore levels (Supplementary Fig. 1 for Cdc20 and ref. [33] for BubR1, Mad1). However, an interaction between human Mad1 and Bub1 cannot be detected in immunoprecipitation experiments. To determine whether there was an interaction between human Mad1 and Bub1, we first developed an assay for looking at transient and/or weak Mad1 interactions in vivo. […] The purification and detection of biotinylated proteins were highly robust and we detected multiple Mad1 peptides upon addition of biotin, as expected (Supplementary Fig. 5C). Using a quantitative mass spectrometry SILAC approach allowed us to compare the proximity of proteins to the N terminus versus the C terminus of Mad1. […]
Figure 3 Bub1 directly interacts with Mad1. (a) Nocodazole arrested HeLa cells stably expressing the indicated Mad1-BirA or BirA-Mad1 fusion protein at near endogenous levels were analyzed 16 h after induction with doxycyclin with or without exposure to 25 μM biotin. […] Bound Bub1 protein was detected by blotting for FLAG. (e) Quantification of three independent experiments as in d with WT binding set to 1. […]

[1] = GST-Bub1 425-500, 30 °C for 1 h, 500 μM ATP, LC-MS, kinase-free control 0

B1: Mps1: purified kinase (Life Technologies) (protein, UniProt P33981 1-857, looked up)
Dual specificity protein …: MESEDLSGRELTIDSIMNKVRDIKNKFKNEDLTDELSLNKISADTTDNSGTVNQIMMMANNPEDWLSLLLKLEKNSVPLSDALLNKLIGRYSQAIEALPPDKYGQNESFARIQVRFAELKAIQEPDDARDYFQMARANCKKFAFVHISFAQFELSQGNVKKSKQLLQKAVERGAVPLEMLEIALRNLNLQKKQLLSEEEKKNLSASTVLTAQESFSGSLGHLQNRNNSCDSRGQTTKARFLYGENMPPQDAEIGYRNSLRQTNKTKQSCPFGRVPVNLLNSPDCDVKTDDSVVPCFMKRQTSRSECRDLVVPGSKPSGNDSCELRNLKSVQNSHFKEPLVSDEKSSELIITDSITLKNKTESSLLAKLEETKEYQEPEVPESNQKQWQSKRKSECINQNPAASSNHWQIPELARKVNTEQKHTTFEQPVFSVSKQSPPISTSKWFDPKSICKTPSSNTLDDYMSCFRTPVVKNDFPPACQLSTPYGQPACFQQQQHQILATPLQNLQVLASSSANECISVKGRIYSILKQIGSGGSSKVFQVLNEKKQIYAIKYVNLEEADNQTLDSYRNEIAYLNKLQQHSDKIIRLYDYEITDQYIYMVMECGNIDLNSWLKKKKSIDPWERKSYWKNMLEAVHTIHQHGIVHSDLKPANFLIVDGMLKLIDFGIANQMQPDTTSVVKDSQVGTVNYMPPEAIKDMSSSRENGKSKSKISPKSDVWSLGCILYYMTYGKTPFQQIINQISKLHAIIDPNHEIEFPDIPEKDLQDVLKCCLKRDPKQRISIPELLAHPYVQIQTHPVNQMAKGTTEEMKYVLGQLVGLNSPNSILKAAKTLYEHYSGGESHNSSSSKTFEKKRGKK
intensity of phospho-peptide 456-VQPS(Phos)PTVHTK (pS459) (GST-Bub1 425–500; [1]): 0
intensity of phospho-peptide 456-VQPSPT(Phos)VHTK (pT461) (GST-Bub1 425–500; [1]): 7,84 E+08
phosphorylation of GST-Bub1 425–500 (in words) (GST-Bub1 425–500; Ser459 and Thr461, mass spectrometry): phosphorylation of Thr461 but no phosphorylation on Ser459

B2: biotinylated CD1 peptide (residues 449–480), unphosphorylated (peptide, UniProt O43683 449-480, looked up)
peptide: Biotin-VQATPSKVQPSPTVHTKEALGFI[Nle]N[Nle]FQAPTL
notes: Bub1, human, residues 449–480 (CD1 and surrounding residues); also called WT; unphosphorylated CD1 peptide; source: synthetic peptide, bought: Biosyntan Gmbh
Kd (His-Strep-Mad1 597–718): 304 µM

B3: Mad1-BirA: promiscuous biotin ligase BirA fused to the C terminus of Mad1 (protein)
chain: MEDLGENTMVLSTLRSLNNFISQRVEGGSGLDISTSAPGSLQMQYQQSMQLEERAEQIRSKSHLIQVEREKMQMELSHKRARVELERAASTSARNYEREVDRNQELLTRIRQLQEREAGAEEKMQEQLERNRQCQQNLDAASKRLREKEDSLAQAGETINALKGRISELQWSVMDQEMRVKRLESEKQELQEQLDLQHKKCQEANQKIQELQASQEARADHEQQIKDLEQKLSLQEQDAAIVKNMKSELVRLPRLERELKQLREESAHLREMRETNGLLQEELEGLQRKLGRQEKMQETLVGLELENERLLAKLQSWERLDQTMGLSIRTPEDLSRFVVELQQRELALKDKNSAVTSSARGLEKARQQLQEELRQVSGQLLEERKKRETHEALARRLQKRVLLLTKERDGMRAILGSYDSELTPAEYSPQLTRRMREAEDMVQKVHSHSAEMEAQLSQALEELGGQKQRADMLEMELKMLKSQSSSAEQSFLFSREEADTLRLKVEELEGERSRLEEEKRMLEAQLERRALQGDYDQSRTKVLHMSLNPTSVARQRLREDHSQLQAECERLRGLLRAMERGGTVPADLEAAAASLPSSKEVAELKKQVESAELKNQRLKEVFQTKIQEFRKACYTLTGYQIDITTENQYRLTSLYAEHPGDCLIFKATSPSGSKMQLLETEFSHTVGELIEVHLRRQDSIPAFLSSLTLELFSRQTVA
modifications: left off: BirA, C-terminal, kept
biotinylation of Bub1, BubR1 and Cdc20 (proximity), Mad1-BirA vs BirA-Mad1 (Bub1 and KNL1; SILAC mass spectrometry, single experiment, and western blot): more efficiently labelled with biotin

B4: MAD1 EFR/AAA: Mad1-BirA with Glu710, Phe712 and Arg714 mutated to Ala (protein)
chain: MEDLGENTMVLSTLRSLNNFISQRVEGGSGLDISTSAPGSLQMQYQQSMQLEERAEQIRSKSHLIQVEREKMQMELSHKRARVELERAASTSARNYEREVDRNQELLTRIRQLQEREAGAEEKMQEQLERNRQCQQNLDAASKRLREKEDSLAQAGETINALKGRISELQWSVMDQEMRVKRLESEKQELQEQLDLQHKKCQEANQKIQELQASQEARADHEQQIKDLEQKLSLQEQDAAIVKNMKSELVRLPRLERELKQLREESAHLREMRETNGLLQEELEGLQRKLGRQEKMQETLVGLELENERLLAKLQSWERLDQTMGLSIRTPEDLSRFVVELQQRELALKDKNSAVTSSARGLEKARQQLQEELRQVSGQLLEERKKRETHEALARRLQKRVLLLTKERDGMRAILGSYDSELTPAEYSPQLTRRMREAEDMVQKVHSHSAEMEAQLSQALEELGGQKQRADMLEMELKMLKSQSSSAEQSFLFSREEADTLRLKVEELEGERSRLEEEKRMLEAQLERRALQGDYDQSRTKVLHMSLNPTSVARQRLREDHSQLQAECERLRGLLRAMERGGTVPADLEAAAASLPSSKEVAELKKQVESAELKNQRLKEVFQTKIQEFRKACYTLTGYQIDITTENQYRLTSLYAEHPGDCLIFKATSPSGSKMQLLETEFSHTVGELIEVHLRRQDSIPAFLSSLTLALASAQTVA
modifications: left off: BirA, C-terminal, kept
notes: Mad1-BirA with Glu710, Phe712 and Arg714 mutated to Ala
biotinylation of Bub1 and KNL1 (Bub1 and KNL1; nocodazole arrested HeLa, 25 μM biotin, western blot, representative of two independent experiments): did not affect the biotinylation of Bub1 and KNL1
